Results as given in patent publication CN111718416A.

Target: 硫氧还蛋白(Thioredoxin，Trx)
Test: indirect ELISA, Trx coated at 3 μg/ml, supernatant of transiently transfected CHO cells diluted 1000-fold, goat anti-mouse HRP

Sequence of 硫氧还蛋白(Thioredoxin，Trx) (P0AA25 2-109): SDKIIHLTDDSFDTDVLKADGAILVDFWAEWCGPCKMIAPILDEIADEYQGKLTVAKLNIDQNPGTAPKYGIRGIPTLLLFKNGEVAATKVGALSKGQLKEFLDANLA

B1: 实施例4的硫氧还蛋白的单克隆抗体(WT) (antibody, mouse IgG1, kappa, V domains shown)
VH: EVKLEESGGGLVQPGGSMKLSCAASGFTFSDGWMDWVRQSPEKGLEWVAELRNDAHNHRTYYAESLKGRFTISRDDSQSNVFLQMNSLRAEDTGIYYCTKRVPEGTGSWFAYWGQGTLVTVSA
VL: DIVMTQSPSSLGMSVGQKVTMSCKSSQSILNSINQKNYLAWYQQRPGQSPKLLVYFGSTRDSGVPDRFIGSGSGTDFTLTISSLQAEDLADYFCQQNYTTPPTFGGGTKLEIKR
OD (450nm, 参考630nm): > 1 OD
